# Molecular target: SkpA (Fjoh_1689) (Flavobacterium johnsoniae (endogenous))
# Assay: cryo-EM structure; Extended Translocon, peak I of Twin-strep–SprA complexes from a ΔgldL background (also seen at 4.3 Å from ΔgldM peak I); assembled in vivo, in LMNG
substance,measurement,value
SkpA (Fjoh_1689) (natural protein),stoichiometry N,3
